Source: paper PMC10397247

Tests used:
Assay in all cases: two-hybrid library CCmax;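 note: natural log of median RNA to DNA barcode read ratio; higher means stronger binding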
4H3865-AA = biological target: T1, 4H3865-AA; conditions: mean of both orientations
T1 chain: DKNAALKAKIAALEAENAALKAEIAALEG

4H891-AA = biological target: T2, 4H891-AA
T2 chain: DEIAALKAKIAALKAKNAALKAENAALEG

4H930-AA = biological target: T3, 4H930-AA; conditions: mean of both orientations
T3 chain: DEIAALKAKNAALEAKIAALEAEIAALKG

P5-AA-12HAA-R = biological target: T4, P5-AA-12HAA-R; conditions: mean of both orientations
T4 chain: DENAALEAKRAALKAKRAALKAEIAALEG

4H451-AA = biological target: T5, 4H451-AA; conditions: mean of both orientations
T5 chain: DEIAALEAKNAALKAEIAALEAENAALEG

4H4038-AA = biological target: T6, 4H4038-AA; conditions: mean of both orientations
T6 chain: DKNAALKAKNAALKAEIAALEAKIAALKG

4H384-AA = biological target: T7, 4H384-AA; conditions: mean of both orientations
T7 chain: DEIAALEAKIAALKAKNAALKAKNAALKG

4H797-AA = biological target: T8, 4H797-AA; conditions: mean of both orientations
T8 chain: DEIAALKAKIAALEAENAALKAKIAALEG

P5-AA-12HAA-Y = biological target: T9, P5-AA-12HAA-Y; conditions: mean of both orientations
T9 chain: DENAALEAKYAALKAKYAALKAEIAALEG

4H629-AA = biological target: T10, 4H629-AA; conditions: mean of both orientations
T10 chain: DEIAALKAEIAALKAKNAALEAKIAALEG

P5-AA-12HAA-H = biological target: T11, P5-AA-12HAA-H; conditions: mean of both orientations
T11 chain: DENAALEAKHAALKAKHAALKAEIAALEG

4H850-AA = biological target: T12, 4H850-AA; conditions: mean of both orientations
T12 chain: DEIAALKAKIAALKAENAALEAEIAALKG

P5-AA-12HAA-S = biological target: T13, P5-AA-12HAA-S; conditions: mean of both orientations
T13 chain: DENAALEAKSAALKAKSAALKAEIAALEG

4H536-AA = biological target: T14, 4H536-AA; conditions: mean of both orientations
T14 chain: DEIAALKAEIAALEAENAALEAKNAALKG

P5-AA-12HAA-K = biological target: T15, P5-AA-12HAA-K; conditions: mean of both orientations
T15 chain: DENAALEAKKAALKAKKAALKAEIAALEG

4H3590-AA = biological target: T16, 4H3590-AA
T16 chain: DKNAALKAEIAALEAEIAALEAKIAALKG

4H485-AA = biological target: T17, 4H485-AA; conditions: mean of both orientations
T17 chain: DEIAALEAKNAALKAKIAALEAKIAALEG

4H3625-AA = biological target: T18, 4H3625-AA; conditions: mean of both orientations
T18 chain: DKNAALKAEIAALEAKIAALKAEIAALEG

P5-AA-12HAA-T = biological target: T19, P5-AA-12HAA-T; conditions: mean of both orientations
T19 chain: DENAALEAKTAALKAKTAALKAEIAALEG

P5-AA-12HAA-D = biological target: T20, P5-AA-12HAA-D; conditions: mean of both orientations
T20 chain: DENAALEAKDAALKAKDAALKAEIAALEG

4H_GCN4 = biological target: 4H_GCN4
O11-AA = biological target: T21, O11-AA; conditions: mean of both orientations
T21 chain: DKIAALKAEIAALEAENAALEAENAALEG

P5-AA-12HAA-L = biological target: T22, P5-AA-12HAA-L; conditions: mean of both orientations
T22 chain: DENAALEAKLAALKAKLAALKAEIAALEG

P5-AA-12HAA-V = biological target: T23, P5-AA-12HAA-V; conditions: mean of both orientations
T23 chain: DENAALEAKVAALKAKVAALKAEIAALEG

4H3697-AA = biological target: T24, 4H3697-AA; conditions: mean of both orientations
T24 chain: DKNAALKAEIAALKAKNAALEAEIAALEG

O13-AA = biological target: T25, O13-AA; conditions: mean of both orientations
T25 chain: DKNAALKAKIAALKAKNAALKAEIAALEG

4H_BCR = biological target: T26, 4H_BCR; conditions: mean of both orientations
T26 chain: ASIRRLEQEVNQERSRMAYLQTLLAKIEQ

4H3905-AA = biological target: T27, 4H3905-AA; conditions: mean of both orientations
T27 chain: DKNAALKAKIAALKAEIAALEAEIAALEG

4H43-AA = biological target: T28, 4H43-AA; conditions: mean of both orientations
T28 chain: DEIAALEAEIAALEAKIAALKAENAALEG

4H94-AA = biological target: T29, 4H94-AA; conditions: mean of both orientations
T29 chain: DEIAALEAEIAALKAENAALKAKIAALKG

4H570-AA = biological target: T30, 4H570-AA; conditions: mean of both orientations
T30 chain: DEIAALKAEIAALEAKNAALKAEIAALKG

4H909-AA = biological target: T31, 4H909-AA; conditions: mean of both orientations
T31 chain: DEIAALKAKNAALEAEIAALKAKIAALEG

GCN2_T = conditions: mean of both orientations
P5-AA-12HAA-E = biological target: T32, P5-AA-12HAA-E; conditions: mean of both orientations
T32 chain: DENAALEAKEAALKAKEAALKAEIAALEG

4H_APH = biological target: T33, 4H_APH; conditions: mean of both orientations
T33 chain: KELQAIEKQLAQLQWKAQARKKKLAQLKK

4H510-AA = biological target: T34, 4H510-AA; conditions: mean of both orientations
T34 chain: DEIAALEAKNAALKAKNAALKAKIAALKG

4H458-AA = biological target: T35, 4H458-AA; conditions: mean of both orientations
T35 chain: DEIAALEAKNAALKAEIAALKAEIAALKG

P5-AA-12HAA-A = biological target: T36, P5-AA-12HAA-A; conditions: mean of both orientations
T36 chain: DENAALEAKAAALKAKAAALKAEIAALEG

4H3753-AA = biological target: T37, 4H3753-AA; conditions: mean of both orientations
T37 chain: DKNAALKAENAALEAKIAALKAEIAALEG

4H745-AA = biological target: T38, 4H745-AA; conditions: mean of both orientations
T38 chain: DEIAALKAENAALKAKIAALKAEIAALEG

O14-AA = biological target: T39, O14-AA; conditions: mean of both orientations
T39 chain: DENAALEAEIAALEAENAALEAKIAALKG

4H710-AA = biological target: T40, 4H710-AA; conditions: mean of both orientations
T40 chain: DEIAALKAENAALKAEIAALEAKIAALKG

P5-AA-1HAA-N = biological target: T41, P5-AA-1HAA-N; conditions: mean of both orientations
T41 chain: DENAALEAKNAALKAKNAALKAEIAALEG

4H_GCN4, sequence (chain, as listed by the source): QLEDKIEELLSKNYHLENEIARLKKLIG

DKNAALKAEIAALEAEIAALEAKIAALKG [4H3590-AA]
interaction score (4H3865-AA): -1.18
interaction score (4H891-AA): -0.048
interaction score (4H930-AA): -1.4
interaction score (P5-AA-12HAA-R): 1.92
interaction score (4H451-AA): -1.08
interaction score (4H4038-AA): -0.327
interaction score (4H384-AA): 1.26
interaction score (4H797-AA): -1.01
interaction score (P5-AA-12HAA-Y): 2.53
interaction score (4H629-AA): -0.923
interaction score (P5-AA-12HAA-H): 1.78
interaction score (4H850-AA): -0.0746
interaction score (P5-AA-12HAA-S): 1.88
interaction score (4H536-AA): -0.687
interaction score (P5-AA-12HAA-K): 2.23
interaction score (4H3590-AA): 2.25
interaction score (4H485-AA): 1.8
interaction score (4H3625-AA): 2.07
interaction score (P5-AA-12HAA-T): 1.63
interaction score (P5-AA-12HAA-D): -1.25
interaction score (4H_GCN4): -1.16
interaction score (O11-AA): -0.698
interaction score (P5-AA-12HAA-L): 2.42
interaction score (P5-AA-12HAA-V): 2.25
interaction score (4H3697-AA): -0.287
interaction score (O13-AA): 1.33
interaction score (4H_BCR): -0.0889
interaction score (4H3905-AA): 2.01
interaction score (4H43-AA): 1.98
interaction score (4H94-AA): -1.15
interaction score (4H570-AA): -0.136
interaction score (4H909-AA): -1.14
interaction score (GCN2_T): -0.424
interaction score (P5-AA-12HAA-E): -0.101
interaction score (4H_APH): -0.247
interaction score (4H510-AA): -0.0505
interaction score (4H458-AA): 1.13
interaction score (P5-AA-12HAA-A): 1.75
interaction score (4H3753-AA): 0.435
interaction score (4H745-AA): 1.02
interaction score (O14-AA): -1.17
interaction score (4H710-AA): -1.14
interaction score (P5-AA-1HAA-N): -0.0553
